Experimental data taken from patent US20240209109A1.
Positions count from the first letter of the chain named.

B1: 2p931 anti-Claudin 18.2/CD40 bispecific antibody (bispecific antibody, part only; not given: Claudin 18.2 Fab arms, constant regions, linker, V domains shown, not shown: another chain or arm of the molecule; a dimerising Fc or GST; small tags and cut ends)
VHH: AVQLVESGGGLVQPGGSLRLSCAASGFSFRNYMMNWVRQAPGKGLECLSSITSAGDITSYTESVKGRFTISRDNAKNTLYLQMNSLKPEDTAVYYCAQGGCGNYYRESWGQGTQVTVSS
B2: 2p957 anti-Claudin 18.2/CD40 bispecific antibody (bispecific antibody, part only; not given: Claudin 18.2 Fab arms, constant regions, linker, V domains shown, not shown: another chain or arm of the molecule; a dimerising Fc or GST; small tags and cut ends)
VHH: B1 VHH with A1P, M33I, N35S, C47W, S53N, A54S, D56G, C101S, G102D, E107G
B3: 2p1130 anti-Claudin 18.2/CD40 bispecific antibody (bispecific antibody, part only; not given: Claudin 18.2 Fab arms, constant regions, linker, V domains shown, not shown: another chain or arm of the molecule; a dimerising Fc or GST; small tags and cut ends)
VHH: EVQVVESGGGLVQPGGSLRLTCAASGFSVDDYGIGWFRQAPGREREGVACITPNGLMMNFANTVGSVAGRFSASRDSGENTVSLQMSSLKPEDTAIYFCAHSRDDSCRGSLSDYDDWGQGTQVTVSS
B4: 42p155 anti-Claudin 18.2/CD40 bispecific antibody (bispecific antibody, part only; not given: Claudin 18.2 Fab arms, constant regions, linker, V domains shown, not shown: another chain or arm of the molecule; a dimerising Fc or GST; small tags and cut ends)
VHH: PSQLVESGGGLVQPGGSLRLSCAASGFAFRSYTMSWVRQAPGKGLEWVSTITHNGAITTYAESAQGRFTISRDNAKNTLYLQMNSLKPEDTAVYYCAQGGGSNYYRESWGQGTQVTVSS
B5: 2p1294 anti-Claudin 18.2/CD40 bispecific antibody (bispecific antibody, part only; not given: Claudin 18.2 Fab arms, constant regions, linker, V domains shown, not shown: another chain or arm of the molecule; a dimerising Fc or GST; small tags and cut ends)
VHH: B4 VHH with P1Q, S2V, A28S, S31R, T50A, T52S, H53D, A61T
B6: 42p655 anti-Claudin 18.2/CD40 bispecific antibody (bispecific antibody, part only; not given: Claudin 18.2 Fab arms, constant regions, linker, V domains shown, not shown: another chain or arm of the molecule; a dimerising Fc or GST; small tags and cut ends)
VHH: B4 VHH with P1A, S2V, S31R, T50S, H53D, A56S, Y95H
B7: 3p78 anti-Claudin 18.2/CD40 bispecific antibody (bispecific antibody, part only; not given: Claudin 18.2 Fab arms, constant regions, linker, V domains shown, not shown: another chain or arm of the molecule; a dimerising Fc or GST; small tags and cut ends)
VHH: B4 VHH with S2V, A28T, S31N, T33A
B8: 2p834 anti-Claudin 18.2/CD40 bispecific antibody (bispecific antibody, part only; not given: Claudin 18.2 Fab arms, constant regions, linker, V domains shown, not shown: another chain or arm of the molecule; a dimerising Fc or GST; small tags and cut ends)
VHH: B4 VHH with P1Q, S31R, A56S
B9: 42p495 anti-Claudin 18.2/CD40 bispecific antibody (bispecific antibody, part only; not given: Claudin 18.2 Fab arms, constant regions, linker, V domains shown, not shown: another chain or arm of the molecule; a dimerising Fc or GST; small tags and cut ends)
VHH: PVQLVESGGNLVQPGGSLRLSCVAPGFTSRNSAMSWVRQAPGKGLEWVSTIYSGKSNTDYADSVKGRFTISTDNAKNTLYLHMNKLKSEDTAVYYCAKGAASDWYVPRDYWGQGTQVTVSS
B10: 2p415 anti-Claudin 18.2/CD40 bispecific antibody (bispecific antibody, part only; not given: Claudin 18.2 Fab arms, constant regions, linker, V domains shown, not shown: another chain or arm of the molecule; a dimerising Fc or GST; small tags and cut ends)
VHH: QLHFVESGGGLVQPGGSLRLSCAASGFTLDHYAMGWFRQAPGKEREGVSCISGGGSTRYADSAKGRFTISRDNAKNTVYLQMNSLTPEDTAVYYCAAARLLSRNCVPRDSGSWGQGTQVTVSS
B11: 2p442 anti-Claudin 18.2/CD40 bispecific antibody (bispecific antibody, part only; not given: Claudin 18.2 Fab arms, constant regions, linker, V domains shown, not shown: another chain or arm of the molecule; a dimerising Fc or GST; small tags and cut ends)
VHH: B10 VHH with L2V, H3Q, F4L, A23V, H31Y, Y32F, M34I, A63V
B12: 2p551 anti-Claudin 18.2/CD40 bispecific antibody (bispecific antibody, part only; not given: Claudin 18.2 Fab arms, constant regions, linker, V domains shown, not shown: another chain or arm of the molecule; a dimerising Fc or GST; small tags and cut ends)
VHH: B10 VHH with H31Y, M34I, A63V, R103T

The binders below were run against human CD40-His protein (human) (UniProt P25942) (assay: SPR Biacore T200, antibody captured on Protein A, CD40-His injected).
Chain of human CD40-His protein (human) (P25942 21-193 limits assumed): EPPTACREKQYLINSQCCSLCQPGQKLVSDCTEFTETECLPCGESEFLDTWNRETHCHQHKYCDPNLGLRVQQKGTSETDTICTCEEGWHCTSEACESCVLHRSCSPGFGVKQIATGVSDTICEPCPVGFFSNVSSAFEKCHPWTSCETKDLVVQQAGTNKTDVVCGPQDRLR

| Kd | koff | kon | Binder |
| --- | --- | --- | --- |
| 86.2 nM | 0.00409 s⁻¹ | 47400 M⁻¹ s⁻¹ | B1 |
| 2310 nM | 0.107 s⁻¹ | 46400 M⁻¹ s⁻¹ | B2 |
| 2770 nM | 0.0705 s⁻¹ | 25400 M⁻¹ s⁻¹ | B3 |
| 760 nM | 0.0374 s⁻¹ | 49100 M⁻¹ s⁻¹ | B4 |
| 182 nM | 0.0187 s⁻¹ | 103000 M⁻¹ s⁻¹ | B5 |
| 47.5 nM | 0.00442 s⁻¹ | 93100 M⁻¹ s⁻¹ | B6 |
| 2490 nM | 0.107 s⁻¹ | 42700 M⁻¹ s⁻¹ | B7 |
| 90.6 nM | 0.0084 s⁻¹ | 92700 M⁻¹ s⁻¹ | B8 |
| 935 nM | 0.0118 s⁻¹ | 12700 M⁻¹ s⁻¹ | B9 |
| 754 nM | 0.0447 s⁻¹ | 59300 M⁻¹ s⁻¹ | B10 |
| 1030 nM | 0.045 s⁻¹ | 43700 M⁻¹ s⁻¹ | B11 |
| 492 nM | 0.0177 s⁻¹ | 36100 M⁻¹ s⁻¹ | B12 |
